Results reported in patent US20250355001A1, “METHOD FOR DETECTING A TAU PROTEIN FRAGMENT IN A SAMPLE” (GTINVENT LIMITED, priority 2022, published 2025).

What was measured:
hT40 = target: T1, hT40 (Homo sapiens, UniProt P10636); assay: Sandwich ELISA limits of detection (LoD) of antibody pairs; format: binding; settings: S1D12 mAb capture, hT40
T1 construct: Full length tau (hT40)
Excerpt: The diverse panel of high affinity anti-tau antibodies (scAb and mAb formats) were paired in various combinations and tested in a Sandwich (or Capture) ELISA format to calculate their limits of detection (LoD) and their ability to differentiate between different tau species. Biologically, tau exists in 6 different isoforms and is subjected to numerous post translational modifications, some of them playing a significant role in the progression of neurodegeneration.
For Sandwich ELISA using colourimetric detection, 96 well Maxisorp plates were coated with the capture antibody S1D12 mAb at 1 μg/ml for 1 h at RT followed by blocking with 2% MPBS as normal. Full length tau (hT40), at 1 μg/ml starting concentration was added to designated wells and double diluted across rest of the plates and left to incubate at R/T for 1 h. A series of detection scAbs with varying epitope recognition properties were added at 10 μg/ml to designated wells (FIG. 22). For colourimetric detection HRP conjugated anti-HuCk secondary antibody was used and the resulting immunoreaction was developed and absorbance at 450 nm measured as described previously. Cut-off point for a positive binding event was an absorbance value of 0.3 following background subtraction. In order to enhance the assay sensitivity, a chemiluminescent detection method was adopted where 50 μL SuperSignal ELISA Femto Substrate (Thermo Scientific) was added to each well following incubation with anti-HuCK HRP antibody and subsequent washing. The luminescence was read using Clariostar Plus microplate reader. A further modification to this protocol was done where various detection scAbs were directly conjugated with HRP and detected using chemiluminescent protocol as before. The lowest levels of detection achieved using different detection scAbs and a comparison of colourimetric and chemiluminescent methods of detection are shown in Table 28
Similarly, a sandwich ELISA format was set up using S1G2 mAb at 1 μg/ml as the capture antibody and HRP conjugated S1D12 mAb for detection. The assay was conducted using chemiluminescent protocol described above.

[1] = tested on: hT40, dGA, dGAE and truncated tau fragments; assay: Binding ELISA / epitope mapping of anti-tau scAbs with truncated tau proteins and 13mer peptides; design: species or system human; settings: for Tau proteins/fragments with positive scAb reactivity: binding ELISA
Outline: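 Plates coated with 1 μg/ml tau protein, or 5 μg/ml streptavidin then 1 μg/ml biotinylated 13mer peptide; blocked with 2% MPBS. scAbs added at a starting concentration and double-diluted. Bound scAb detected with HRP anti-human C kappa and read as absorbance.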

dGAE aggregates = dGAE aggregates (Homo sapiens, UniProt P10636); assay: Sandwich ELISA on SDS/Triton X-100 treated dGAE aggregates; format: binding; settings: S1D12 mAb capture, S1G2 scAb detection; SDS + Triton X-100
Sequence of dGAE aggregates (P10636 614-708): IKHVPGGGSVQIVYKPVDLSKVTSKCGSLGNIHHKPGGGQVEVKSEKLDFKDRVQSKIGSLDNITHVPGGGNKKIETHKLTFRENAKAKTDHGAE
Procedure: We have noticed Sodium dodecyl sulphate (SDS) can break apart dGA/dGAE aggregates and separate them into smaller fragments by performing an SDS-PAGE. This has been replicated and tested using an ELISA as described below.
For aggregation, 1000 μL 100 μM dGAE+10 μL 10 mM DTT was added to a ‘LoBind’ microfuge tubes and agitated at 700 RPM/37° C. for 24 hours. Resulting sample centrifuged at 17,000×g/4° C. for 60 min and supernatant discarded to remove left over monomer. Pellet resuspended in half the original volume for future experiments and hereafter referred to as ‘aggregates’. 1 μl of aggregates was added to 1 ml of PBS and SDS was added to a final concentration of 1% (w/v). This was left to incubate on lab bench for 1 h with gentle agitation every 15 minutes. In order to neutralize the SDS effect on ELISA, Triton X-100 added to a final concentration of 3% (v/v) and mixed gently by pipetting to prevent any bubble formation. 200 μl added of this mix was to the first well of an ELISA plate coated with 1 μg/ml S1D12 mAb and blocked with 2% MPBS. Similarly aggregates treated with only SDS or Triton X-100, untreated aggregates, dGAE monomers treated with only SDS or SDS+Titon X-100 were also added to designated wells as controls. All samples were then double diluted across the plate in final volumes of 100 μl. The final column was left with no protein to act as a blank. This was allowed to stand at room temperature for 1 hour followed by the addition of detection scAb-S1G2 at 10 μg/ml. Anti-HuCk HRP labelled secondary antibody was added as described previously and ELISA data generated was represented using the graph below.

[2] = tested on: core tau in plasma of wildtype, Line 1 and Line 66 mice; assay: S1D12 mAb 6-week repeat-dose mouse study; plasma tau by CA4-S1G2 Simoa; format: in vivo; settings: for plasma tau (CA4-S1G2 Simoa): 30 mg/kg i.p. once per week, six weeks
Procedure: A total of 12 wildtype, 12 Line 1 and 12 Line 66 female mice were used in this study-Line 1 and Line 66 are transgenic mouse models of tauopathy ( Melis et al., 2015). Animals were 2 months old at the beginning of the study. Mice of each genotype were injected intraperitoneally (i.p.) with either vehicle or S1D12 mAb (30 mg/kg), once per week, for six consecutive weeks.
Seven days post final dose, cardiac puncture blood sampling was performed. mice were anaesthetised using an overdose of sodium pentobarbital (i.p.) and blood was collected via cardiac puncture through a Plastipak syringe pre-rinsed with heparinised saline (10 U/mL) and transferred into a plastic vial containing lithium heparin anticoagulant. Blood samples were centrifuged to obtain plasma at 2,000×g for 5 min at 6° C.
A three-step assay was performed and analysed by following the previously described plasma screening methods using CA4 antibody capture beads, S1G2 detector (10 ng/ml) and the plasma samples added in 1:8 dilution.

dGAE (SEQ ID NO: 4) = dGAE (SEQ ID NO: 4) (Homo sapiens, UniProt P10636); assay: Biacore X100 SPR kinetics of scAbs for dGAE; format: binding; settings: Table 24, scAb, dGAE analyte
Sequence of dGAE (SEQ ID NO: 4) (P10636 614-708): as above
Procedure: Surface plasmon resonance (SPR) is widely regarded as the gold standard for real time measurement of protein-protein interactions such as antibody binding. All SPR experiments were carried out using a Biacore X100 machine and HBS EP+ running buffer (GE Healthcare). A ‘capture’ method was followed for affinity measurements, where an anti-human constant kappa chain (HuCk) antibody was conjugated to the surface of a CM5 sensor chip using an amine coupling kit and scAb molecules were immobilised via their HuCk domain. Amine coupling is a very common approach for immobilising the ligand to the chip surface. The chip surface has a dextran matrix derivatised with carboxyl groups, which after activation with N-hydroxysuccinimide (NHS) and 1-ethyl-3-(3-dimethylaminopropyl) carbodiimide (EDC), form reactive succinimide esters which allows the covalent capturing of the ligand via any available primary amine groups (e.g. Lysine) on the ligand (in this case anti-HuCk antibody). The capture antibody was diluted 1/100 in 10 mM Sodium acetate buffer pH 5.0 and passed over the activated chip surface for a period of at least 420 s. Final ligand immobilisation levels over 12,000 RU were deemed to be satisfactory.
Following immobilisation, the level of each scAb to be captured was identified using the standard SPR equation with a theoretical RMax of 100 RU. Analyte MW refers to the molecular weight of hT40 or dGA/dGAE molecules, while ligand MW refers to the molecular weight of the scAbs tested. RL is the desired capture level and S refers to the stoichiometric ratio:
The scAb to be tested was added only to flow cell 2 so that flow cell 1 could act as a control to subtract any interaction with the analyte and the chip surface. Both single and multi-cycle runs were utilised using wizards developed in the Biacore X100 control software which are both accepted methods of kinetic analysis (Karlsson, R., et al. Analyzing a kinetic titration series using affinity biosensors (2006) Analytical Biochemistry 349:136-47). The multi-cycle protocol was as follows-Three start-up cycles composed of an initial capture, to the desired level, of the scAb to be tested was performed followed by a 30 s injection of glycine buffer pH 2.0 after each cycle to regenerate the chip surface. The regeneration step removed any captured scAb whilst leaving the capture antibody intact and able to repeat the capture for the next cycle. […]
The single cycle kinetics protocol was similar and utilised the same level of scAb capture. […] Binding responses were analysed in Biacore X100 evaluation software and data fitted to a 1:1 binding model to obtain kinetic and affinity characterisation.

T1 sequence (P10636 1-441 isoform P10636-8): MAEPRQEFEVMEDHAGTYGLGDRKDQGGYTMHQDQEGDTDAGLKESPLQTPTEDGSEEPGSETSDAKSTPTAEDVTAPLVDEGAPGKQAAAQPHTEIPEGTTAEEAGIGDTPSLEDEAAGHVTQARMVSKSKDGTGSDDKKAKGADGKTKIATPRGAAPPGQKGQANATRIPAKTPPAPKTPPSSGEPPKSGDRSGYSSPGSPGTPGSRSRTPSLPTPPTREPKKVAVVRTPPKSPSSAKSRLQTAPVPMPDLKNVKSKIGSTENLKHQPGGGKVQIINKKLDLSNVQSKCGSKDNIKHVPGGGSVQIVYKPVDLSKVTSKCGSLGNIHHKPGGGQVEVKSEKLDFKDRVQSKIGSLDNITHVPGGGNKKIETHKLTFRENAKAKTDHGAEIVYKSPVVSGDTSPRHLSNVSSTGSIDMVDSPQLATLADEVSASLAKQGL

B1: CA2: anti-tau clone, Table 10; SEQ ID NO: 363 (protein)
chain: QVQLQESGPSLVKPSQTLSLTCTVSGFSLSSVAVNWVRQAPGKVPEWLGGIISNGGTGYNPALKSRLSITRDTSKSQVSLALTHVTTEDTAVYYCGRGVEWEGSMDYLGPGLLVTVSSEGKSSGSGSETKVDDQSVLTQPSSVSGFLGQRVTITCSGSSSNVGAGSYVGWYQQVPGSGLRILIYGATKRASGLPDRFSGSRSGNTATLTISSLQAEDEADYYCVSYQTDFTLVFGSGTRLTVLG
modifications: CA2 amino acid sequence
hT40; SuperSignal ELISA Femto Substrate
  LoD (ng/ml) chemiluminescence detection: 0.37 ng/mL
hT40; detection scAb 10 μg/ml, anti-HuCk HRP
  LoD (ng/ml) colourimetric detection: 6 ng/mL
[1]; Table 17, 'C' group scAbs
  Tau proteins/fragments with positive scAb reactivity: hT40, 1-49, 1-319, 1-155, 186-350, 348-441
[1]; Table 17, 'C' group scAbs, incl. 13mer peptides
  Shortest region bound on hT40: 1-155
[1]; Table 28 (LoD table), residues of hT40
  Detection scAb (Epitope): CA2 (100-155)
[1]; residue numbers of SEQ ID NO: 1 (hT40), CDR Tables 1-11
  Epitope: 1-155

B2: S1D12 mAb: S1D12 reformatted; heavy chain SEQ ID NO: 445, light chain 446 (antibody)
heavy: QVQLQESGPSLVKPSQTLSLTCTVSGFSLNNNAVGWVRQAPGKVPESLVGCSSDGTCYYNSALKSRLDITRDTSKNQISLSLSSVTTDDAAVYYCTRGHYSIYGYDYLGTIDYWGPGLLVTVSSAKTTAPSVYPLAPVCGDTTGSSVTLGCLVKGYFPEPVTLTWNSGSLSSGVHTFPAVLQSDLYTLSSSVTVTSSTWPSQSITCNVAHPASSTKVDKKIEPRGPTIKPCPPCKCPAPNLLGGPSVFIFPPKIKDVLMISLSPIVTCVVVDVSEDDPDVQISWFVNNVEVHTAQTQTHREDYNSTLRVVSALPIQHQDWMSGKEFKCKVNNKDLPAPIERTISKPKGSVRAPQVYVLPPPEEEMTKKQVTLTCMVTDFMPEDIYVEWTNNGKTELNYKNTEPVLDSDGSYFMYSKLRVEKKNWVERNSYSCSVVHEGLHNHHTTKSFSRTPGK
light: QAVLTQPSSVSGSLGQRVSITCSGSSSNVGGGNSVGWYQHLPGSGLKTIIYDTNSRPSGVPDRFSGSRSGNTATLTINSLQAEDEGDYYCVTGDSTTHDDLVGSGTRLTVLGGQPKSSPSVTLFPPSSEELETNKATLVCTITDFYPGVVTVDWKVDGTPVTQGMETTQPSKQSNNKYMASSYLTLTARAWERHSSYSCQVTHEGHTVEKSLSRADCS
modifications: S1D12 mAB Heavy Chain; S1D12 mAB Light Chain
dGAE aggregates
  dGAE aggregates detectable: approximately 2 ng/ml
[2]; L1 mice
  increase of core tau in plasma vs vehicle: more than 100 fold
  plasma tau (CA4-S1G2 Simoa): > 100 ng/mL
[2]; L66+/+ mice, mean (SEM)
  plasma tau (CA4-S1G2 Simoa): 3.52 (0.20) ng/ml
[2]; L66 mice
  increase of core tau in plasma vs vehicle: more than a threefold increase
[2]; wild-type mice
  increase of core tau in plasma vs vehicle: less than a two-fold increase
[2]; wildtype mice, mean (SEM)
  plasma tau (CA4-S1G2 Simoa): 3.57 (0.22) ng/ml

B3: E1E8: dGAE (391E) specific clone, Table 9; SEQ ID NO: 250 (protein)
scFv: QVQLQESGPSLVKPSQTLSLTCTVSGFSLTDWGVAWVRQAPGKALEWLGTMRSGGTTDDNPALKSRLSITRDTSKSQVSLSLSSVTTEDMAMYYCARGYLSGVHYAWGRGLLVTVSSEGKSSGASGESKVDDQAVLTQPSSVSGSLGQSVSITCSGSSSNVGDGRYVSWFQQVPGSAPKLLIYDTTSRASGVPDRFSGSRSGNTATLIITSLQAEDEADYYCASIDSGNNLLFGSGTRLTVLG
modifications: E1E8 amino acid sequence
[1]; ELISA, 'E' group scAbs
  cross-reactivity using hT40, dGA and dGAE antigens: specific dGAE binding
[1]; Table 15, residue numbers of hT40
  Tau proteins/fragments with positive scAb reactivity: 297-391 (dGAE)
dGAE (SEQ ID NO: 4)
  ka: 153500 M⁻¹ s⁻¹
dGAE (SEQ ID NO: 4); dissociation rate
  Kd: 0.0014 s⁻¹
